Consider one substance from patent US20090324590A1.

The experiment concerns the target recombinant wild type myostatin. In words: cell-based or functional assay.

Turning to “myostatin antagonist 300 (amino acids 267-300 of bovine myostatin with N-terminal and C-terminal tags) (peptide)”, the p-FoxO1 expression (Western blot, normalised to total FoxO1) in C2C12 myotubes; myostatin 6 ug/mL with 300 at 30, 60, 90 or 120 ug/mL for 24 hours; concentration of 300 giving maximal rescue turned out to be 90 µg/mL.
